From patent US20220241413A1, “COMBINATION THERAPIES USING CD-38 ANTIBODIES” (Takeda Pharmaceutical Company Limited, priority 2019, published 2022) come the findings set out here.

For one data set, the target named is human CD38 (Homo sapiens, UniProt P28907). The data set is described as follows: Biacore affinity to human CD38. Type of data set: binding. The source says: Other Morphosys antibodies targeting CD38 are known (see, e.g., WO 2006/125640, which discloses four human antibodies: MOR03077, MOR03079, MOR03080, and MOR03100 and two murine antibodies: OKT10 and IB4). […] Moreover, the prior art antibodies have poor ADCC as well as CDC activity.
(In general: SPR reads the build-up and loss of mass on a sensor chip optically.)

The subject of data set [1] is relapsed/refractory multiple myeloma (RRMM). The data set is described as follows: AB79-1501 study, AB79 plus PomDex combination cohort in RRMM: disease response. The data set is classed as in vivo, human. From the text:
This is a multicenter, dose-escalation, open-label, single-arm, Phase 1/2a study designed to determine the safety, tolerability, efficacy, PK, and immunogenicity of AB79 monotherapy in patients with RRMM, and to provide a preliminary assessment of its activity against MM. This study is an amendment to the Phase 1/2a study in RRMM described in Example 1 (a) to allow for an increase in the number of patients enrolled in the Phase 1 study; and (b) to add a cohort of patients to evaluate AB79 combined with the backbone regimen of pomalidomide and dexamethasone (PomDex) in patients with RRMM who have received at least 2 prior therapies and are refractory to the last therapy before study entry. PomDex is approved for this patient population and adding an anti-CD38 monoclonal antibody to it, especially one that is given subcutaneously (SC), could be beneficial and convenient for patients.
The study provides a Confirmation Cohort and a Combination Cohort. […]
The preliminary efficacy of AB79 for MM is evaluated by measuring the ORR (defined as the proportion of patients who achieved a PR or better during study) and the composition of sCR, CR, VGPR, and PR as defined by the IMWG Uniform Response Criteria. MR will also be analyzed. In addition, the efficacy of AB79 is assessed in patients by measuring DOR, PFS, and 1-year OS. TTR will also be measured. […]

Data set [2] can be described thus: AB79-2001 phase 1b study in SLE: safety. The data set is classed as in vivo, human. The conditions noted are these: 15 patients, data still blinded (AB79 or placebo). The source says: AB79-2001 is a double-blind, placebo-controlled phase 1b study in patients with moderate to severe SLE. As of the clinical data cutoff, a total of 15 patients had received at least 1 dose of AB79 or placebo. Data is still blinded for this study. No new safety concerns have been identified.

Data set [3] in a line: Phase 1 study in healthy subjects (AB79-101): safety. The data set is classed as in vivo, human. The method, then: In a phase 1 study in healthy subjects (Study AB79-101), AB79 reduced the levels of peripheral blood and natural killer (NK) cells >90% from baseline in all subjects receiving a single 0.06 mg/kg IV dose of AB79, with a maximum observed concentration (Cmax) of 0.1 μg/mL. (U.S. Pat. No. 8,362,211; U.S. International Patent Application Serial Nos. PCT/US2019/013547 and PCT/US2019/024431). […] Potent reduction of plasmablasts was observed across cohorts of patients in the RRMM trial (Study AB79-1501). […] Consequently, AB79 may be more efficient at eliminating cells expressing high levels of CD38, which could manifest as higher activity on tumor cells (e.g., improved and deeper response rates across a population of patients with myeloma).
AB79 IV reduced the levels of peripheral blood NK cells >90% from baseline levels in all subjects receiving a single 0.06 mg/kg IV dose, with a Cmax of 0.1 μg/mL. […] As a potent and convenient second-generation anti-CD38 mAb, AB79 SC warranted therapeutic development for the treatment of multiple myeloma (MM).

With “AB79: anti-CD38 monoclonal IgG1 antibody; heavy chain SEQ ID NO:11, light chain SEQ ID NO:12”, the affinity with human CD38, expressed as Kd, was 5.4 nM. Also, in data set [1], the “clinical benefit rate (minor response or better)” value stood at 100% and the “preliminary objective response rate (ORR)” value was determined as 40%. Further, the “patients with a Grade 3 or higher TEAE or AEs leading to study drug discontinuation” value in data set [2] is listed as “No patient”. Also, in data set [3] (74 healthy subjects, single IV or SC dose escalation), the “serious adverse events (SAEs)” value is recorded as “no serious adverse events”. In addition, the “neutrophil, lymphocyte, monocyte, RBC and platelet counts” value in data set [3] (healthy subjects, all dose cohorts) is on record as “remained within normal ranges”.

As a reminder, the Kd is a measure of binding affinity in units of concentration. Read a high Kd as weaker binding.
